Residue numbers refer to the chain shown, from its start. Where two headings read alike, the source gives them in different places.
Columns and labels:
[1] = molecular target: T1, protein A (UniProt P38507 37-477); test: Heat/Cool phage ELISA: phage-displayed scFv, 80 C 10 min then 4 C 10 min, captured on coated protein A; signal as % of untreated sample
T1 construct: also called Protein A superantigen
Procedure: (§1) The aggregation-resistance of clones was analyzed by measuring retention of signal after heat incubation in a phage ELISA format (McCafferty et al., 1990; Jespers et al., 2004). Wells of a Nunc Maxisorp Immuno-plate were coated overnight with protein A at a concentration of about 5 μg/ml in phosphate-buffered saline (PBS). The plate was washed once with PBS and blocked with about 4% (w/v) milk powder diluted in PBS (MPBS). Single colonies were picked from agar plates and grown overnight in 2×TY medium (containing about 16 g/L tryptone; about 10 g/L yeast extract; about 5 g/L NaCl, pH 7.0) supplemented with about 15 μg/ml tetracycline shaking at about 30° C. […] After three washes with PBS, bound phage particles were detected using an Extravidin-HRP conjugate (Sigma) and 3,3′,5,5′-tetramethylbenzidine (TMB) substrate. Absorbance was calculated by subtracting measurements at 450 and 650 nm.
The DP47-CDR1 mutants described above were paired with a common single variable light chain (VL; SEQ ID NO: 3) via a linker (SEQ ID NO: 4) in a scFv format (see the Materials and Methods section for full experimental details). […] Correctly folded scFv were captured by protein A ELISA and the absorbance signal of the treated sample was calculated as a percentage of the untreated sample.

[2] = molecular target: T1, protein A; test: Heat/Cool phage ELISA: phage-displayed VH, 80 C 10 min then 4 C 10 min, captured on coated protein A; signal as % of untreated sample
Procedure: as §1
To identify additional residues in CDR1 that confer aggregation-resistance on VH, surface-exposed residues of DP47 between positions 26 to 35 (numbering according to the Kabat numbering system) were substituted for aspartic acid (D) or glutamic acid (E). […] Correctly folded VH were captured by protein A ELISA and the absorbance signal of the treated sample was calculated as a percentage of the untreated sample.

[3] = molecular target: T1, protein A; test: Heat/Cool phage ELISA on protein A; signal after 80 C 10 min / 4 C 10 min as % of untreated sample
Procedure: (§2) The aggregation-resistance of clones was analyzed by measuring retention of signal after heat incubation in a phage ELISA format (McCafferty et al., 1990; Jespers et al., 2004). Wells of a Nunc Maxisorp Immuno-plate were coated overnight with protein A at a concentration of about 5 μg/ml in phosphate-buffered saline (PBS). The plate was washed once with PBS and blocked with about 4% (w/v) milk powder diluted in PBS (MPBS). Single colonies were picked from agar plates and grown overnight in 2×TY medium (containing about 16 g/L tryptone; about 10 g/L yeast extract; about 5 g/L NaCl, pH 7.0) supplemented with about 15 μg/ml tetracycline shaking at about 30° C. Cells were removed by centrifugation and phages were biotinylated directly in the culture supernatant by adding biotin-PEO₄-N-hydroxysuccinimide (Pierce; about 50 μM final concentration). For heat selection, supernatant was first incubated at about 80° C. for about 10 min and then at about 4° C. for about 10 min. Supernatant was added to the blocked ELISA wells. After three washes with PBS, bound phage particles were detected using an Extravidin-HRP conjugate (Sigma) and 3,3′,5,5′-tetramethylbenzidine (TMB) substrate. Absorbance was calculated by subtracting measurements at 450 and 650 nm.
Antigen-specific VH domains were selected from the Garvan-2 library by phage display against recombinant protein antigen. After selection, the domains were evaluated for aggregation-resistance using the “Heat/Cool” assay described in Example 1.2, and binding to either or protein A superantigen and or recombinant antigen.

[4] = molecular target: T1, protein A; test: Heat/Cool phage ELISA: phage-displayed VH, 80 C 10 min then 4 C 10 min, captured on coated protein A; signal as % of untreated sample; remark: listed apart in the source
Procedure: as §2, with “For heat selection, supernatant was first incubated at about 80° C. for about 10 min and then at about 4° C. for about 10 min. Supernatant was added to the blocked ELISA wells.” left out
VH domains were produced comprising negatively charged amino acids at positions 28 and/or 35 in CDR1 of DP47 and at least one other position, as set out in Table 7. Aggregation-resistance of the VH domains was assessed using the “Heat/Cool” assay as described in Example 1.2.

[5] = molecular target: T1, protein A; test: as above; remark: listed apart in the source
Procedure: as §2, with “nm. […]” for “nm.”

[6] = molecular target: T2, human tumor necrosis factor α (human, UniProt P01375 77-233); test: SPR (Biacore), biotinylated hTNF on streptavidin chip, purified VH injected from 4 µM down
T2 construct: also called hTNF; human TNF
Procedure: The affinities of VH clones G07 (anti-hTNF; SEQ ID NO: 5) and G11 (anti-mIL-21; SEQ ID NO: 6) were measured using surface plasmon resonance (using a Biacore machine; GE Healthcare). For this purpose, biotinylated antigen diluted in PBS was injected over a streptavidin (SA) sensor chip (Biacore AB). Serial dilutions of purified VH (with concentrations ranging from about 0.125 to 4 μM) were injected at a flowrate of about 20 μl/min over the flow cell containing the corresponding target antigen. Equilibrium dissociation constants were calculated using the BIAevaluation 4.1 software package (Biacore AB).
Two clones selected for their binding to human tumour necrosis factor (hTNF) or mouse interleukin 21 (mIL-21) were isolated from the Garvan-I libraries, as detailed above (see Materials and Methods section). […] Biacore affinity measurements of anti-human TNF clone G07 (SEQ ID NO: 5) and anti-mouse IL-21 clone G11 (SEQ ID NO: 6) were performed. Serial dilutions of each purified protein, starting at 4 μM, were run on a streptavidin (SA) chip coated with biotinylated hTNF and mIL-21, respectively.

[7] = molecular target: T3, human prolactin receptor (human, UniProt P16471 25-234); test: SPR (Biacore 2000), biotinylated antigen on streptavidin chip, purified VH
T3 construct: also called hPRLR; PRLR (Prolactin Receptor)
T3 sequence (looked up): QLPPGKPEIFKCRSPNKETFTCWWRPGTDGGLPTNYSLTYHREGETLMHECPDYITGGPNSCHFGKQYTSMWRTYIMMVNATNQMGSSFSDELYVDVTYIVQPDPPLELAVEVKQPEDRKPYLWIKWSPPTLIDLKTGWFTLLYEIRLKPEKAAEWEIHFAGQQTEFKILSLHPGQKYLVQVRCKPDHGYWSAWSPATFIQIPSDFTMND
Procedure: (§3) The affinities of VH clones were measured using surface plasmon resonance (using a Biacore2000 instrument; GE Healthcare). For this purpose, biotinylated antigen diluted in PBS was injected over a streptavidin (SA) sensor chip (Biacore AB). Serial dilutions of purified VH were injected over the flow cell containing the corresponding target antigen. Equilibrium dissociation constants were calculated using the BIAevaluation 4.1 software package (Biacore AB).
(§4) The antigen-specific VH domains were expressed and purified. Affinity measurements were performed by surface plasmon resonance on a Biacore 2000 instrument.

[8] = molecular target: T4, Hen-Egg-Lysozyme (hen, UniProt P00698 19-147); test: as above
T4 construct: Biotinylated for Biacore; also called HEL
Procedure: as §3, §4

T4 sequence (P00698 19-147): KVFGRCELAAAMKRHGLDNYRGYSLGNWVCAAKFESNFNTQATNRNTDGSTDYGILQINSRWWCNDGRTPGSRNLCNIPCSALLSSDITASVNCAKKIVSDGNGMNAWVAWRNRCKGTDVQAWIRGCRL
T2 sequence (P01375 77-233 limits assumed): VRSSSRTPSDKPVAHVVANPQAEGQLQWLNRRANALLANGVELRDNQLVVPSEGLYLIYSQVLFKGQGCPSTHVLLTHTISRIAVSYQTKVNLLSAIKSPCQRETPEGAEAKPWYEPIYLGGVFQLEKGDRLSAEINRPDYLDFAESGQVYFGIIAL

B1: scFv HEL4 VH - linker - common VL (scFv)
scFv: QVQLLESGGGLVQPGGSLRLSCAASGFRISDEDMGWVRQAPGKGLEWVSSIYGPSGSTYYADSVKGRFTISRDNSKNTLYLQMNSLRAEDTAVYYCASALEPLSEPLGFWGQGTLVTVSSGGGGSGGGGSGGGGSTDIQMTQSPSSLSASVGDRVTITCRASQSISSYLNWYQQKPGKAPKLLIYAYSDLQSGVPSGFSGSGSGTDFTLTISSLQPEDFATYYCQQLMTHPTTFGQGTKVEIKR
notes: also called HEL4 (scFv)
Retained binding to protein A [1]: 56%

B2: scFv DP47 VH SYA31-33DED - linker - common VL (scFv)
scFv: QVQLLESGGGLVQPGGSLRLSCAASGFTFSDEDMSWVRQAPGKGLEWVSAISGSGGSTYYADSVKGRFTISRDNSKNTLYLQMNSLRAEDTAVYYCAKSYGAFDYWGQGTLVTVSSGGGGSGGGGSGGGGSTDIQMTQSPSSLSASVGDRVTITCRASQSISSYLNWYQQKPGKAPKLLIYAYSDLQSGVPSGFSGSGSGTDFTLTISSLQPEDFATYYCQQLMTHPTTFGQGTKVEIKR
notes: also called SYA31-33DED (scFv)
Retained binding to protein A [1]: 45%

B3: HEL4 VH (other)
VH: QVQLLESGGGLVQPGGSLRLSCAASGFRISDEDMGWVRQAPGKGLEWVSSIYGPSGSTYYADSVKGRFTISRDNSKNTLYLQMNSLRAEDTAVYYCASALEPLSEPLGFWGQGTLVTVSS
Retained binding to protein A (%) [2]: 80.2% | Retained binding (%) after heating [3]: 88.1% | Retained binding to protein A (%) [4]: 87.7% | Retained binding to protein A (%) [5]: 80.8%

B4: DP47 VH G52aD (other, name in Kabat numbering)
VH: QVQLLESGGGLVQPGGSLRLSCAASGFTFSSYAMSWVRQAPGKGLEWVSAISDSGGSTYYADSVKGRFTISRDNSKNTLYLQMNSLRAEDTAVYYCAKSYGAFDYWGQGTLVTVSS
Retained binding to protein A (%) [5]: 2.1%

B5: VHhTNF_G07 (anti-hTNF VH) (other, not shown: small tags and cut ends)
VH: B3 VH with A99K, L100E, E101D, P102Y, L103D, S104T, E105Y, P106N, L107W
notes: also called clone G07; anti-human TNF clone G07
Kd [6]: 1860 nM

B6: VHPRLR_C02 (anti-hPRLR VH) (other)
VH: EVQLLESGGGLVQPGGSLRLSCAASGFRFADEDMGWVRQAPGKGLEWVSDISGDGYSTYYADSVKGRFTISRDNSKNTLYLQMNSLRAEDTAVYYCAKLPPVYLGGAFDYWGQGTLVTVSS
notes: Human VH single domain antibody from the Garvan-2 library
Retained binding (%) after heating [3]: 98.8% | Kd [7]: < 100 nM

B7: VHHEL_H04 (anti-HEL VH) (other)
VH: EVQLLESGGGLVQPGGSLRLSCAASGFRFDAEDMGWVRQAPGKGLEWVSSIYGPSGSTYYADSVKGRFTISRDNSKNTLYLQMNSLRAEDTAVYYCAKYTSPPQNHGFDYWGQGTLVTVSS
notes: as for B6
Retained binding (%) after heating [3]: 87.8% | Kd [8]: 28 nM

B8: VHHEL_G08 (anti-HEL VH) (other)
VH: EVQLLESGGGLVQPGGSLRLSCAASGFRISDEDMGWVRQAPGKGLEWVSYIDNNGYSTYYADSVKGRFTISRDNSKNTLYLQMNSLRAEDTAVYYCAKKQYGYQNGGFDYWGQGTLVTVSS
Retained binding (%) after heating [3]: 83.8% | Kd [8]: 65 nM

Source: patent US20160145328A1 (published 2016)
